In publication PMC11255334, “Acetyl-CoA synthetase activity is enzymatically regulated by lysine acetylation using acetyl-CoA or acetyl-phosphate as donor molecule” (Nature Communications, 2024):
Changes are numbered by the printed parent chain. Blank lines part the entries; values can stand above or below the molecule they belong to.

Key:
[1] = molecular target: T1, AcsA from Chloroflexota bacterium (Chloroflexota bacterium, UniProt Z9YKO5Y7U4); experiment: X-ray crystallography; type: binding; settings: product of the first half-reaction; thioester-forming conformation
T1 construct: monomer in solution and crystal; expression and tag not described; His476 found phosphorylated
T1 sequence (Z9YKO5Y7U4 9-657): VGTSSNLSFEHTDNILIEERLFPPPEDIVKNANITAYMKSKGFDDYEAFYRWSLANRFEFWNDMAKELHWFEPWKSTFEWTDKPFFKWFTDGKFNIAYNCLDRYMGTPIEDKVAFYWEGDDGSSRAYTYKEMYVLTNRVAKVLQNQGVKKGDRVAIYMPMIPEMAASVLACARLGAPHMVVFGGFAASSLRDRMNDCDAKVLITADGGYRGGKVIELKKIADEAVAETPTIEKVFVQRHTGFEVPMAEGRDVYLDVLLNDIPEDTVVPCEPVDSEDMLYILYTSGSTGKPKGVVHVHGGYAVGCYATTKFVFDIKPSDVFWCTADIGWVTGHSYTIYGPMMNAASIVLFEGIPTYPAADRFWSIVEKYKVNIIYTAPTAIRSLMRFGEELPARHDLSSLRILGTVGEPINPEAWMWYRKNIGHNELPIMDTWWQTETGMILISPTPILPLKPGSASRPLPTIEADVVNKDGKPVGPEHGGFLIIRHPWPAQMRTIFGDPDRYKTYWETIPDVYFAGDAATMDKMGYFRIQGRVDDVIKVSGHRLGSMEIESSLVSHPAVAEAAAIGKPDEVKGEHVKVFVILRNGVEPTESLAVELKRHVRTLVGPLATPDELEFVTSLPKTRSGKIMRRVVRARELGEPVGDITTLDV

[2] = molecular target: Bacillus subtilis AMP-forming acetyl-CoA synthetase AcsA (Bacillus subtilis) (UniProt P39062); experiment: SEC; analytical SEC of equimolar AcsA and AcuA (wild type or mutants), incubated 30 min at room temperature, Superdex 200 10/300 GL, 50 mM Tris/HCl pH 8, 50 mM KCl, 2 mM β-mercaptoethanol; 100 µl of 50–100 µM; without ligand or with a tenfold molar excess of CoA or AcP alone
AcsA V477A = molecular target: T2, AcsA V477A (Bacillus subtilis, UniProt P39062 1-572, V477A); experiment: as above; settings: both partners purified
T2 construct: AcsA, Bacillus subtilis, UniProt P39062, with V477A
T2 sequence (looked up): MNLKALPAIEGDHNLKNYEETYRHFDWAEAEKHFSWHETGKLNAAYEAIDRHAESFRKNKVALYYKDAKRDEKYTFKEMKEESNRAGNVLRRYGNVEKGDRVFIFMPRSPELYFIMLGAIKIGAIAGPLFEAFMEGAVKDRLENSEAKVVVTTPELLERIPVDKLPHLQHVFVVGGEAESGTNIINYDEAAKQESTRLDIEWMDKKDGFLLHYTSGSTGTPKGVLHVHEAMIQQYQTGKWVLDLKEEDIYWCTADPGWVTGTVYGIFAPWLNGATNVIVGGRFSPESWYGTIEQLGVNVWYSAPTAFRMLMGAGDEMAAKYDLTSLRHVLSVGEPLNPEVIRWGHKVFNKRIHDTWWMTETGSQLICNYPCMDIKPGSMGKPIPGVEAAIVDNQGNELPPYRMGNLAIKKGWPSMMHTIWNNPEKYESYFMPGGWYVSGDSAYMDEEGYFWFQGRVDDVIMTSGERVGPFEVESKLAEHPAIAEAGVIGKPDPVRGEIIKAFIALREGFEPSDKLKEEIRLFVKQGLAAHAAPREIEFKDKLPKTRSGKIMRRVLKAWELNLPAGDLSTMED

AcsA K549Q = molecular target: T3, AcsA K549Q (Bacillus subtilis, UniProt P39062 1-572, K549Q); experiment: as above; settings: both partners purified
T3 construct: AcsA, Bacillus subtilis, UniProt P39062, with K549Q; also called acetylation-mimetic mutant AcsA K549Q
T3 sequence (looked up): T2 sequence (looked up) with A477V, K549Q

AcsA K549R = molecular target: T4, AcsA K549R (Bacillus subtilis, UniProt P39062 1-572, K549R); experiment: as above; settings: both partners purified
T4 construct: AcsA, Bacillus subtilis, UniProt P39062, with K549R; also called non-acetylated mutant AcsA K549R
T4 sequence (looked up): T2 sequence (looked up) with A477V, K549R

AcsA E473A = molecular target: T5, AcsA E473A (Bacillus subtilis, UniProt P39062 1-572, E473A); experiment: as above; settings: both partners purified
T5 construct: AcsA, Bacillus subtilis, UniProt P39062, with E473A
T5 sequence (looked up): T2 sequence (looked up) with E473A, A477V

Molecule: CC(=O)OP(=O)(O)OC[C@H]1O[C@@H](n2cnc3c(N)ncnc32)[C@H](O)[C@@H]1O [acetyl-AMP]
X-ray crystallography [1]: structure solved in complex with acetyl-AMP, i.e. the product of the first half-reaction

stoichiometry N (AcuA per AcsA (2:2)) [2]: 1
binding result (AcsA V477A): binds
binding result (AcsA K549Q): binds
binding result (AcsA K549R): binds
binding result (AcsA E473A): binds
B1: Bacillus subtilis acetyltransferase AcuA (enzyme, UniProt P39065 1-210, looked up)
chain: MEHHKTYHSANIKTATGSLLIEGPVSPEDLAGYEFHKDLTAFRPPREQHEALVDIAGLPEGRIIIARDGRTIVGYVTYLYPDPLERWSEGNMEDLIELGAIEVAPDYRGCAVGKTLLTVSMMDEQMENYIVMTTEYYWHWDLKGMKKDVWEYRKIMEKMMNAGGLVWFATDEPEISSHPANCLMARIGKNVSQESIEQFDRLRFYHRYMY
notes: GNAT-related lysine acetyltransferase AcuA, Bacillus subtilis, UniProt P39065; synthetic gene codon optimized for E. coli; also called AcuA wildtype; AcuA WT; source: E. coli BL21 (DE3), pET45b(+), purified (HisTrap FF, Ni2+)
